Data on four sequences can be found in PMC6504816.

For the series, the target named is T1, YlxR (Bacillus subtilis) (UniProt P32728).
T1 sequence: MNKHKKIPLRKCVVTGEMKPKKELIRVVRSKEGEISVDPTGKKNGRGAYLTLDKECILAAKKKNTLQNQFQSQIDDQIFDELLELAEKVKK
In words: EMSA. The settings on record: 10 mM Tris-HCl pH 8.0, 100 mM KCl, 10 mM MgCl2, 1 mM DTT, 1 mM EDTA, 1 ug poly(dI-dC), 20 fmol probe in 20 ul, 15 min at 25 C; 6% native PAGE. On the technique in general: In EMSA bound probe runs differently from free probe, usually more slowly.

For “CTGGATGATATGGCAGAGTGGGTGTACCAAATTAAATAAAAGAACTATTTTTCTCTTTATACATTCACAGGCCGCCGAGATGTTCTCGACAGCCTTTTATTTTTGACTGCTGCGTGCAGACCCGCATCAAAAGAAATAATTTCAAAATCATTTGCTTCAG (double strand) [PtrmK [-295/-135] M1]”, the binding result is “binds”.
In the case of “CTGGATGATATGGCAGAGTGGGTGTCAAAAATTAAATAAAAGAACTATTTTTCTCTTTATACATTCACAGGCCGCCGAGATGTTCTCGACAGCCTTTTATTTTTGACTGCTGCGTGCAGACCCGCATCAAAAGAAATAATTTCAAAATCATTTGCTTCAG (double strand) [PtrmK [-295/-135] Wt]” it was “binds”; in that of “GGATATTCCAGCAAAATTCGATAAACTAGGAAGAGCACAAATAGGCATAAGCAGGGTTGAAAGGAGGTTTTGGTTC (double strand) [PthiL [-76/-1] Wt]”, “binds”.
Consider “GGATATTCCATACCAATTCGATAAACTAGGAAGAGCACAAATAGGCATAAGCAGGGTTGAAAGGAGGTTTTGGTTC (double strand) [PthiL [-76/-1] M1]”, for which the binding entry is on record as “binds more weakly”.
